Like-named read-outs stand apart in the source and are kept apart here.

For data set [1], the system named is rat anterior pituitary cell cultures. As to the kind of experiment: Rat primary anterior pituitary cell bioassay (GH release, radioimmunoassay). The format is cell-based. On the procedure:
Rat anterior pituitary cell cultures were prepared for measuring the biological activity of GHRH, GHRH-induced release of GH was quantified using radioimmunoassay. Anterior pituitaries from fifteen female Sprague-Dawley rats were placed in a solution of Gey's media supplemented with 1% BSA, 0.25% glucose, and 0.2 mM MEM non essential amino acids at pH 7.4. Cell dispersion was performed in a solution of 400 U/ml trypsin in supplemented Gey's media for 30 minutes, 1750 KU/ml DNase-I in supplemented Gey's media for 5 minutes, and cells were triturated 15-30 times in 0.6 mg/ml lima bean trypsin inhibitor in supplemented Gey's media. Cells were filtered thru 160 u and 100 u mesh and centrifuged for 3 minutes at 1100 RPM and 12 minutes at 1600 rpm. Cell pellet was suspended at 3×10^5 cells/ml in DMEM supplemented with 10% fresh rat serum, 3% horse serum, 2.5% fetal calf serum, 2% Antibiotic-Antimycotic, 0.3% Fungizone, 0.45% glucose, 25 mM Hepes, 4 mM glutamine, 1 mM sodium pyruvate, 1 nM 3,3',5-triiodo-L -thyronine (T3), 100 nM dexamethazone and 10 uM MEM non essential amino acids. Cells were plated at 1 ml/well in 24 well plates and incubated at 8% CO2 at 37 C. for 68-72 hours. To stimulate cells with hormones, cells were washed three times in Gey's media supplemented with 1% BSA, 0.45% glucose and 25 mM Hepes. GHRH (1-44)NH2 was added to cells in 1 ml of supplemented Gey's media and cells were incubated for 3 hours before collecting media. Rat growth hormone levels were quantitated using a radioimmunoassay kit (Amersham).
(§1) Predicted variances in SEAP responses=0.32×(Y)^154.

Data set [2] deals with T1, porcine GHRH receptor (Sus scrofa, UniProt P34999).
T1 sequence (P34999 23-423): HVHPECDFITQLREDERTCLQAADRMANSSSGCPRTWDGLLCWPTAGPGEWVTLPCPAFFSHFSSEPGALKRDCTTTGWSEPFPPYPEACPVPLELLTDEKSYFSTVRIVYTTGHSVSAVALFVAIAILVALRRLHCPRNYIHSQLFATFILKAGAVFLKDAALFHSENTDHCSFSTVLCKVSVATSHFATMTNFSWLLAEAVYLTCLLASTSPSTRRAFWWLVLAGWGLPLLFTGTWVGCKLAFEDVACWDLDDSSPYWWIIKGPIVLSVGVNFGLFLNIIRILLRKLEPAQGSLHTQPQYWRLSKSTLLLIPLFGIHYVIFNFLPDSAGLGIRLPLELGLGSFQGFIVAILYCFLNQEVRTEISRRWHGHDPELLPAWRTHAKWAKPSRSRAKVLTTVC
Experimental: Assays for secreted alkaline phosphatase (SEAP) were performed using the chemiluminescent substrate in the Great Escape Detection Kit (Clontech). Culture medium was centrifuged at 14000 rpm in a microfuge centrifuge to remove cell debris. One hundred microliters of culture medium was then added to 300 ul of dilution buffer and heated at 65 C. for 30 minutes. Samples were cooled to room temperature and 100 ul of diluted sample was added to 100 ul of assay buffer. Samples were allowed to set for 5 minutes. One hundred microliters of the CSPD substrate solution was then added to each sample, incubated in the dark for 10 minutes and read on a Wallac LKB 1251 tube luminometer.
A stable transfection was performed in pGHRHr/293 cells using the cAMP-responsive SEAP reporter construct, pha180SEAPpur and stable transfectants were selected on the basis of puromycin resistance. pha180SEAPpur was transfected into pGHRHr/293 cells at 1, 2, 4, 8 and 16 ug/ml Opti-MEM using 8 ul of Lipofectin/ml in six well culture plates. After six hours, 1 ml of 20% fetal calf serum in DME (high glucose) was added to the cells. Twenty-four hours post-transfection the cells were subcultured 1:18 and were incubated in 250 ug/ml G418. Forty-eight hours post-transfection the media was replaced with selectable medium containing 250 ug/ml G418 and 1 ug/ml puromycin. Cells were incubated for three weeks and picked using Trypsin-EDTA treated Whatman 3MM paper and placed in 24 well plates. Upon growing stable isolates to confluency in T75 cm^2 culture flasks, pGHRHr/SEAP/293 cells were removed from flasks, plated in 24 well plates at 1×10^5 cells/well and stimulated with various doses of recombinant human GHRH (1-44)NH2. Media was collected and assayed for secreted placental alkaline phosphatase. Time course studies were performed over a 20 hour period to determine the optimal time to remove media samples from the tissue cultures during stimulation with GHRH. Comparisons of synthetic and recombinant human GHRH (1-44)NH2 (10^-13 to 10^-7 M) were also made. Data was analyzed using FOURFIT and ALLFIT, four parameter logistic curve fitting programs.
Sigmoidal dose response curves were fit by four parameter logistic curve fitting using FOURFIT (Grotjan and Steinberger, 1977), with multiple curves being compared using ALLFIT (DeLean et al.,1978). […] For cAMP and SEAP bioassays, a weighted regression analysis was performed with weights assigned as the reciprocal of predicted variance.

Data set [3] deals with T1, porcine GHRH receptor. As to the kind of experiment: SEAP reporter expression in pGHRHr/293 cells transiently transfected with pha180SEAP. The data set is classed as cell-based. Also on record: host or cells: human fetal kidney 293 cells (pGHRHr/293), stably expressing, G418-selected. The note with it: transiently transfected pGHRHr/293 cells, 6 hours. Here is the method: Samples were allowed to set for 5 minutes.
The efficacy of the cAMP-responsive promoter was evaluated by transient transfection assays using 293 and pGHRHr/293 cells. Transiently transfected 293 cells were stimulated with 1 mM 8-bromo cAMP for 20 hours, while pGHRHr/293 cells were stimulated with various concentrations of recombinant human GHRH for 6 hours.
The ability of GHRH to stimulate the expression of the SEAP reporter cDNA was evaluated using pGHRHr/293 cells transiently transfected with pha180SEAP. Cells were incubated with various doses of GHRH(1-44)NH2 (10^-10 to 10^-6 M) for 6 hours and media was then assayed for SEAP activity.

Data set [4] addresses T1, porcine GHRH receptor. As to the kind of experiment: cAMP accumulation assay of the pGHRHr/293 cell line. The data set is classed as cell-based. Details: host or cells: human fetal kidney 293 cells (pGHRHr/293), stably expressing, G418-selected. To be noted: pGHRHr/293 cells, 45 minutes, 10^-12 to 10^-6 M. On the procedure: The media was then replaced with DME containing 0.1% BSA and 0.1 mM 3-isobutyl-1-methyl-xanthine. Doses of recombinant human GHRH (1-44)NH2 doses, 1×10^-6 M to 1×10^-12 M, were added and the cells were incubated for 45 minutes at 37° C. They were lysed in 60% ethanol and cAMP levels were quantitated by an immunoassay kit (Amersham). After performing the cAMP EIA, data was analyzed using Fourfit, a four parameter logistic curve fitting program.
as §1
For orientation: Changes in cAMP serve as a functional read-out for many G protein-coupled receptors.

The mark [5] stands for this setting: primary rat pituitary cell cultures, 3 hours.
Setting [6] is: pGHRHr/SEAP/293 cells, 16 hour incubation.

Consider “recombinant human GHRH (1-44)NH2: Recombinant human GHRH(1-44)NH2 obtained from BioNebraska, Inc. as a powder”, for which, in data set [1] (setting [5]), the “ED50 of GH secretion” value is 2.16±1.04×10^-10 M. Besides, the “increase in GH secretion into the medium” value in data set [1] (setting [5]) amounted to 3.1 fold. Besides, the “potency relative to synthetic GHRH (times as potent)” value in data set [1] (rat pituitary bioassay) turned out to be 1.69±0.67 times; with porcine GHRH receptor [2] (pGHRHr/SEAP/293 reporter bioassay, p<0.0001), 1.83±0.13 times. In addition, the “calculated ED50 of SEAP dose-response curves” value in the data set with porcine GHRH receptor [2] (after 12, 14, 16 and 18 hours of exposure, not significantly different) was 261 pM. The “SEAP activity increase over the 12-16 hour time points” value with porcine GHRH receptor [2] (at 18 hours) worked out at 1.3 fold; with porcine GHRH receptor [2] (at 20 hours), 1.7 fold. The “increase in SEAP activity” value in the data set with porcine GHRH receptor [2] (pGHRHr/SEAP/293 #815-4, between 12 and 18 hours of exposure) amounted to 4.8 fold. Besides, the “calculated ED50 of SEAP expression” value in the data set with porcine GHRH receptor [2] (setting [6]) is 4.26±0.28×10^-11 M. For the same substance, in the data set with porcine GHRH receptor [2] (pGHRHr/SEAP/293 cells, 16 hour incubation, 10^-13 to 10^-7 M), the “increase in SEAP expression” value is on record as 9.1 fold. In addition, in the data set with porcine GHRH receptor [3] (10^-10 to 10^-6 M), the “increase in the expression of the reporter protein (SEAP)” value amounted to 2.5 fold. For the same substance, the “ED50 of SEAP reporter expression” value in the data set with porcine GHRH receptor [3] was determined as 510 pM. For the same substance, the “calculated ED50 of increase in intracellular cAMP concentration” value with porcine GHRH receptor [4] is given as 8.4±3.6×10^-9 M.

For the substance “synthetic human GHRH (1-44)NH2: Synthetic human GHRH(1-44)NH2 purchased from Peninsula; reference preparation [reference compound]”, the EC50 in data set [1] (primary rat pituitary cell cultures, 3 hours, read-out: ED50 of GH secretion) is 364 pM; with porcine GHRH receptor [2] (read-out: calculated ED50 of SEAP expression, pGHRHr/SEAP/293 cells, 16 hour incubation), 77.8 pM. The “increase in SEAP expression” value in the data set with porcine GHRH receptor [2] (human, pghrhr/seap/293 cells, 16 h) turned out to be 9.1 fold. The substance further registered a minimal detectable dose in the data set with porcine GHRH receptor [2] (setting [6]) of 1.47 pM.
